From the DeepSol protein solubility set

Assay: soluble on expression in E. coli; label from the status in PepcDB or PDB records

Sequence	soluble on expression in E. coli
MGSDKIHHHHHHDEEPSDKGSTSPQEPVYTTFTDAGEVVVPGVLPANFTPRSVRVKGDTLFVANTNAADRSVLLLNLTTGELIGRIDSWVRKGVKETFNAEIGDMAVSDRYIFVGMYNSRINIFDRRTLQFVNAIGRSDGKWGDDIYSMTHCYGLRECGERLMVRDKNTIRGYWIYEAVTEPAFRVPWIGKVKVPEGVGYDYQARIHGMAEYDGRMYLTDWYNKSVQVFTPSKMEIVFGEETHITSDAVFKYDDIQPLGLLAYGGELLMSVQKSGKIQRYDPETGDLLGVLAEFPGKEIGRMEIARGMLYYIDLKAGKLMKAKGE	not soluble
MVGNPALAELLRAPRLIPWRNWSGAQSCLPLAREAPKDLDELVRIIRQASGRIRPVGSGHSFSALVPTDGTLLSLAYFSGLLSHDSVTLQAEFGGGTPMSQMGAPLKEIGQALVNMADIDYQTLAGAIATSTHGTGVGFGSYSAQVRGLQLVTASGEVLECDAKRNVEVFDAARVSLGALGVVTRVRLQNRAAYRLRERQWIARTEELLEDVEKNTRENQHWEMLVVTHSDYALSIALNETDEPKTPPLDPAKEGGNEFVGLIEGLDKYLSDFPETRRTLLNSLRHFARFDERVDDSYAVYANVRNVRFNEMEYSVPAEHGPACLREILALIRDKDLRTWFPIEYRYVKADDIPLSMFEGRDSCSISVHQHYSMDHHNFFAAVEPIFWKYAGRPHWGKLHGLNAHQLQGLYPRWKAFAEVRQALDPRGRFLNAHLSSILGVTKLAAALEHHHHHH	not soluble
GDKLLPKTLSKEIVSEPFAKNQLREKARLTNIKGLEIPRVSYTLDDDDFITDVETAKELKAKGDTVKFTTNKFKVFAAISDTVIHGSDVDLVNWVENALQSGLAAKERKDALAVSPKSGLEHMSFYNGSVKEVEGADMYDAIINALADLHEDYRDNATIYMRYADYVKIISVLSNGTTNFFDTPAEKVFGKPVVFTDAAVKPIVGDFNYFGINYDGTTYDTDKDVKKGEYLFVLTAWYDQQRTLDSAFRIAKA	soluble
MDPLFLLLPYISSVGKEGKFQSVKQMVMDEDYPGCSRLLQCKQGLDSLHHVADEKEVNDQKYHKYNLEKTLEWLKKKVQRTVNALKKGNISVGGGVKSSTFVRVKHEDASEEDYLRYAHGLISEYISEDLSKDLLKHLELPEISSPKEAEPPSKKRKLSDKPVEAGEDYTKFNSADFARKPPKKMTAAQKSLAKADKTGMKSLASFFSPKVKQEKN	not soluble
MASAQPLTALPAIPLPGDAGPVDELAAVIALLQTQPADSTGAATDLAARASALVGAPVTVLDERSGVLAGDPTRVAGQVAAPDGSVALGWGPAADDAERWRPLLTQACVWLSMIRRLDGAPAVEPESVAVREVVQQLLSVRDVDQVLTSIAERTLRLLDADICGVMLREGERVCMRACVGNRVAQTARLRMRRGQGLAGLVFDIGRPAKVDTYLEDRTISPDFMSLAEQEETRSALAVPLRLHGELIGVLEVWRRRPSTFTEHDEHRMVVLADIATVAIDNARLHDEQAASTVEAERARDELQQQVAMLNGSSRLQQKLLTTVIEGGGLPAVVHAVAIELGCEVGVFGPDGAMIATHTPGSTPASLPARLPVRARPATPGRWVRPVYADGDQVGQVVLIQGEASAELMDAVAGQVAMACSLALLRERAASRARAQAVDQVLWDLLQGPVQHRVAARSRAQQLGISLLGSLRVLHGQIENVEELAAEQGWDTSHTDKVRRGVLRAVRGVDEARRLPLTGMRGDLLVAVAADLDRASVKDLAAATCAAIHAEWPGLRLTWGVSRERANPMELPNALSEAETALAAARRLGGRNALLYEELGIVRLLLGSGNDPDLQTFIEEVTGPLIAYDRDNDGALIRTLRAFFDADCSQRVAAERLFVHHKTLRYRLERIRQLTGLDLSRHEDRMRADFALRLLQVNQTSDAIGD	not soluble
MSIRNSASRDDTSASVEDSILDAARSCILDFGLRRTTLAEVARRAGVSRPTVYRRWSDTRAVVADLMTREIAAVMPEFSVEESVHRQLVDAVVHVSTEVRDHPLFVKILRSDQELFTTYILERLGTSQRAIIDQVAFAVSTGQDQGSIRAGDSRHIATMVLLIAQSAVQSAVMVAEELPGDALTEQLRHAVGAYLAPDVAVTHPTDRGDR	not soluble
DTILCFGDCRPLHKEAKRWAKSKGIRFLAFEEGYLRPQFITVEEGGVNAYSSLPRDPDFYRKLPDMPAPHVENLKPSTMKRIGHAMWYYLMGWHYRHEFPRYRHHKSFSPWYEARCWVRAYWRKQLYKVTQRKVLPRLMNELDQRYYLAVLQVYNDSQIRNHSNYNDVRDYINEVMYSFSRKAPKESYLVIKHHPMDRGHRLYRPLIKRLSKEYGLDERVIYVHDLPMPELLRHAKAVVTINSTAGISALIHNKPLKVMGNALYDIKGLTYQGHLHQFWQADFKPDMKLFKKFRGYLLVKTQVNGGYY	not soluble
MADDRGVFPGQWALSGGGVESGERIEEALRREIREELGEQLLLTEITPWTFSDDIRTKTYADGRKEEIYMIYLIFDCVSANREVKINEEFQDYAWVKPEDLVHYDLNVATRKTLRLKGLL	not soluble
MSLGYAFPSILGNLMSKIYQMDAVDWLKTLENCSVDLFITDPPYESLEKYRQIGTTTRLKESKSSSNQWFSVFPNTRFEELFREVYRVLKKGSHFYLFCDQETMFLAKPIAESVGFKFWKPIVWDKCAIGMGYHYRARYEFILFFEKGKRKLNDLSVPDVLEYKRVWKGYPTEKPVELLEVLIRQSSSENEIVADSFFGSGSTLIAANNLSRKYIGCDISSSAHEYFKNRAEGHHHHHH	soluble
MQNAVKLDEIDHKIMNLLYENARISVSEIGRIISMTQPAVKERINKLEDQGVIAAYRTKFEPSKINKNIQAFIMFKTSQCSDFIQFCNAAPEVTDLYRISGEFNYMMKVMSDSMDSLAAFLDSLMQFGLSSPLIVLKSEFEEKLSF	soluble
MAHHHHHHMIAAIKTPAFQERVRAAMSREPTPADAEAVMKRYEEVQADYFTNHYNAEAGGICSSASAGAESRGTGGAGGRAKSSQDASEALAQQVDDMNLQEASDAPKLDGVEIVEQLKNAVRVYKEKETVRLITELCLLIESQVTALPATVPALRHLYSNSVYGSSAMEHAQAASAQAGGGESVLPVAQPSPQVMSMMGMAMRTLNPRQRETLERVQRAMMNGSPPLPEDMQDMLLIQRQLGAFMQTMQRFGQMPSGRGCGSGGRGGCGGQGGQ	soluble
MGSDKIHHHHHHMKKIRFAAIGLAHNHIYDMCQQLIDAGAELAGVFESDSDNRAKFTSLFPSVPFAASAEQLITDASIDLIACAVIPCDRAELALRTLDAGKDFFTAKPPLTTLEQLDAVQRRVAETGRKFAVYFNERINVDSALFAGELVQRGEIGRVIQTMGVGPHRERGARPDWFYQKRQYGGILCDIGIHQIEQFLYFTGNTNARVVTSQTANYHHPHHPEFEDFGDAMLLGDNGATGYFRCDWFTPDGLSVWGDGRLTILGTEGYIEIRKYVDLTRGESNVVYLVNGKGEQRFTPAGSVERAFFPDFLRDCRERTENAMSQSHIFKATELSILAQQAANKIA	not soluble
MSNTTGQWCDGNSVELLINGEDFYARVFECIRAARKEVLIETFIIFEDRIGEGLQQALLQAAANGAKVVVTVDDYGTSDLSSVFVKTMIDAGIQIQLFDPRPRFMGMRTNLFRRLHRKVVVIDGELGFIGGINYSVDHMTDTGVTAKQDYAVLVRGPIVGDIHHSALNMLSKVVRDKLPPIALKLDRAGDASMLLAER	not soluble
SDLQAAGAQAQGAAEPSRGPPLPSARGAPPSPEAGFATADHSGQERETEKAMDRLARGTQSIPNDSPARGEGTHSEEEGFAMDEEDSDGELNTWELSEGTNCPPKEQPGDLFNEDWDSELKADQGNPYDADDIQESISQELKPWVCCAPQGDMIYDPSWHHPPPLIPYYSKMVFETGQFDDAED	soluble
MNDRSSRRRTMKDDETFEISIPFDEAPHLDPQIFYSLSPSRRNFEEPPEAASSALALMNSVKTQLHMALERNSWLQKRIEDLEEERDFLRCQLDKFISSARMEAEDHCRMKPGPRRMEGDSRGGAGGEASDPESAASSLSGASEEGSASERRRQKQKGGASRRRFGKPKARERQRVKDADGVLCRYKKILGTFQKLKSMSRAFEHHRVDRNTVALTTPIAELLIVAPEKLAEVGEFDPSKERLLEYSRRCFLALDDETLKKVQALKKSKLLLPITYRFKR	soluble
MNNKKTGVLLVNLGTPTAPTAAAVKQFLSEFLHDKRVVDMNRFIWCPLLHGVILPIRAPKVAKLYESVWMEEGSPLLVYSQRQVKALEARLSMPVALGMTYGEPRIKSGIESLEQQGCDEIIILPLYPQYSRTTTAAVFDQIAKQYKTTPVLPNFTMIHNYHDHPLYIKALANSVRQSWERNGKGDYVLCSYHGIPQRFVDNGDIYAAHCERTTELLAQELGLTSEQIGMSYQSRFGREEWLKPYTSETLKALAPKGIKSLDIISPAFSSDCLETLEELSEECKEIFMESGGQKYTFIPCLNDDELHIEMMADIVSSKIFNK	not soluble
GSHMASMLPEETILDKLPKDFQERITSSKWKDRVEALEEFWDSVLSQTKKLKSTSQNYSNLLGIYGHIIQKDANIQAVALAAQSVELICDKLKTPGFSKDYVSLVFTPLLDRTKEKKPSVIEAIRKALLTICKYYDPLASSGRNEDMLKDILEHMKHKTPQIRMECTQLFNASMKEEKDGYSTLQRYLKDEVVPIVIQIVNDTQPAIRTIGFESFAILIKIFGMNTFVKTLEHLDNLKRKKIEETVKTL	soluble
MGKKKNSNKSAAAAPAVKHNDRWSSIELGEAKSAAVSHYKEPSKEPKFVHPAKLEKVKRIHDGLNIDRVLSHGPVPKQNGGTKRKHVEVTTQKLENKKPKVEVKKEDEKSKNKKMKNQNKHTALVQNETSTRSTYFVEEPDNENKVTLISNGREIAFKKTEVVESDDEQMIGLDSDEELEDEDETDIDEDEMMIDPKDIERYINFESVEDEEDMEDEEIEDEEFEDEEFEDEEEEADEQEEEEEDVSDEESVVSEMDADSDDEGFIAGKDREAHVISKDKFTRNAPAVDFDKFPFTDEDSVVTSSRAFGFMISPCDVQTFFDKFYQSNVLVVRRKQPTYFGNLFSTARLGELLEKNHLEYGRNINIAQYKNGVRTTLNGQGRAYPQIVKQHLHNMCSVQLVNPQTYDDRIWYLCEVIQEQFGCFVGANTYLTPAGSSGFAPHWDEIDAFLLQVEGRKYWRVWAPESAEEELPLESSDNFTEDDMKGREPVFEGWIEKGDMIYIPRGYIHQARTDSKVHSLHVTVSTGRQWSFANLMEKVVPEAIGVLTDTRHKLRRGLPTGLFDMGGVIDLDYSQEDHFVEKFKMVVDRHMSMLRNLVADQLLESSVDSLAKEFMKQALPPRLTEQEKKLSVLGSSTNLLGDDLVDFTARTKVRLIRRHTQRLLMESEDACFISHRINNSRLFEGRPEQIVEYPISGIDAYRVLSNSYPEWRTLYEIFSLRETKTKSRKENLAAIQLLFQIGVLLVKN	not soluble
MGSDKIHHHHHHMSKPDRVVLIGVAGDSGCGKSTFLNRLADLFGTELMTVICLDDYHSLDRKGRKEAGVTALDPRANNFDLMYEQVKALKNGETIMKPIYNHETGLIDPPEKIEPNRIIVIEGLHPLYDERVRELLDFSVYLDIDDEVKIAWKIQRDMAERGHSYEDVLASIEARRPDFKAYIEPQRGHADIVIRVMPTQLIPNDTERKVLRVQLIQREGRDGFEPAYLFDEGSTIQWTPCGRKLTCSYPGIRLAYGPDTYYGHEVSVLEVDGQFENLEEMIYVEGHLSKTDTQYYGELTHLLLQHKDYPGSNNGTGLFQVLTGLKMRAAYERLTSQAAPVAASV	not soluble
